The text below walks through data of patent publication US20240018502A1.

Where a chain is given by its changes, count along the chain named. Names and notes keep the numbering of the source.

What all share (assay): cell-based or functional assay
Assay [1] addresses proteinase-activated receptor 2 (PAR-2) (UniProt P55085).
The target in assay [2] is human complement protein C3 (human) (UniProt P01024).
Assay [3] addresses complement protein C3 of cynomolgus monkey plasma (cynomolgus monkey).

Chain of proteinase-activated receptor 2 (PAR-2) (P55085 37-397 limits assumed): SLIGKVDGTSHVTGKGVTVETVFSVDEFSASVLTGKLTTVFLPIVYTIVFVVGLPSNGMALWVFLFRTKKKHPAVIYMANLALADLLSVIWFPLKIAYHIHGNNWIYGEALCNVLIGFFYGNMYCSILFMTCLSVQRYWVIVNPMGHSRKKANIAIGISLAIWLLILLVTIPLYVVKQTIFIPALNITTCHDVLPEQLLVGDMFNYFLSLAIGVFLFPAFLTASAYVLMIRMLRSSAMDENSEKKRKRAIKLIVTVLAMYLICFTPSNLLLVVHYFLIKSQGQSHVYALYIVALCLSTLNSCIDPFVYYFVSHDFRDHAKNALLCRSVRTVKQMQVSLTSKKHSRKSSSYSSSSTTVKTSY
Chain of human complement protein C3 (human) (P01024 23-667, chain 1 of 2): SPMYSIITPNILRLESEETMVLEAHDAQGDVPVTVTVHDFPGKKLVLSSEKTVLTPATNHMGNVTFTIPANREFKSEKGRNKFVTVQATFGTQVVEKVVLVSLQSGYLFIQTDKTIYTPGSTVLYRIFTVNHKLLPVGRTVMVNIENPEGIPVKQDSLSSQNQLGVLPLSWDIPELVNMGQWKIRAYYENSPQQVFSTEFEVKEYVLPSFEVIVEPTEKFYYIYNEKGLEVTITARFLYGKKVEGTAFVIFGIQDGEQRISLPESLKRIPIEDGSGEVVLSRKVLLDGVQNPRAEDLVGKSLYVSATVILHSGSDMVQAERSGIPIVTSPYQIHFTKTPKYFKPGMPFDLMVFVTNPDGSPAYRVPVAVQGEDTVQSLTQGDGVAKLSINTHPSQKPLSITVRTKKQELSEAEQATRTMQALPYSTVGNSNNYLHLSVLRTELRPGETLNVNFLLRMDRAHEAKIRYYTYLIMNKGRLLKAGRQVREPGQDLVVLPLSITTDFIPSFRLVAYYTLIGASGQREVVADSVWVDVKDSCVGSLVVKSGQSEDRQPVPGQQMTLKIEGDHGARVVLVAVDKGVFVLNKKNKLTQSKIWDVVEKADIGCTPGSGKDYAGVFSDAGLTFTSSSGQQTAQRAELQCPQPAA
Chain of human complement protein C3 (human) (P01024 672-1663, chain 2 of 2): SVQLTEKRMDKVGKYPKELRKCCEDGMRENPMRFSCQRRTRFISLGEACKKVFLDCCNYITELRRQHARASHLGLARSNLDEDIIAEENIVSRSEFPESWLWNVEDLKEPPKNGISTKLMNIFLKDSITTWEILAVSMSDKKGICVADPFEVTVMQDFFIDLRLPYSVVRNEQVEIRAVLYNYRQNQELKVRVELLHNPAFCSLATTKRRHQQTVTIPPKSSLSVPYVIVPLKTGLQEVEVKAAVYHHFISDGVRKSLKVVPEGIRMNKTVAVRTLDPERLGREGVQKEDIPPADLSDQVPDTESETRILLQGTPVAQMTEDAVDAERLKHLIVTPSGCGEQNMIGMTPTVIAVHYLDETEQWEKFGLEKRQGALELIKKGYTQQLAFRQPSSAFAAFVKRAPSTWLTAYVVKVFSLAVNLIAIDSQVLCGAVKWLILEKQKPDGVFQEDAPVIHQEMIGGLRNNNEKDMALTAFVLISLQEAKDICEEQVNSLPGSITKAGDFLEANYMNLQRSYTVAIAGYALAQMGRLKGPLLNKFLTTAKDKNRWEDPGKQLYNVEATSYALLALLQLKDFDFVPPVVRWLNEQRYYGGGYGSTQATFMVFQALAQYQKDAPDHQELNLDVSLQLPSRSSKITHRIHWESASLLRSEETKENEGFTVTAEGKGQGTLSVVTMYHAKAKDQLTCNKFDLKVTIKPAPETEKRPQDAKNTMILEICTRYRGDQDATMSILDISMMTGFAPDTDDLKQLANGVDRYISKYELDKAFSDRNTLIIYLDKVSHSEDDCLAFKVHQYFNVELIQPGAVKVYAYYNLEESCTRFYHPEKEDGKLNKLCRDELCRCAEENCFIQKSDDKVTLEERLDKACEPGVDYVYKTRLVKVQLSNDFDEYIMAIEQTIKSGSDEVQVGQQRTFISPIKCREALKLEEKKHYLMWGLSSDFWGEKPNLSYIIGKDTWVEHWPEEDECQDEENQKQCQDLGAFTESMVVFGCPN

B1: Modified MTSP-1 protease domain Q38H/I41S/D60bT/F60eS/Y60gW/D96K/F97G/ins97aV/T98P/F99L/C122S/G151H/Q175L/Q192D (enzyme)
chain: VVGGTDADEGEWPWQVSLHALGHGHSCGASLISPNWLVSAAHCYIDTRGSRWSDPTQWTAFLGLHDQSQRSAPGVQERRLKRIISHPFFNKGVPLDYDIALLELEKPAEYSSMVRPISLPDASHVFPAGKAIWVTGWGHTQYGGTHALILQKGEIRVINQTTCENLLPQLITPRMMCVGFLSGGVDSCDGDSGGPLSSVEADGRIFQAGVVSWGDGCAQRNKPGVYTRLPLFRDWIKENTGV
Take B1: the PAR-2 cell based assay ED50 and SKGR/SL kcat/Km, against wild-type MTSP-1 protease domain with C122S in assay [1] is more than 30 fold. The molecule also displayed an inhibition of classical pathway hemolytic assay (CH50) in human plasma at the highest dose (2000 nM) in assay [2] of 94%.

B2: Q38H/I41A/D60bV/F60eR/Y60gW/F97T/ins97aE/T98G/F99L/C122S/G151N/Q175L/Q192D (enzyme)
chain: B1 chain with S26A, T47V, S50R, K91D, G92T, V93E, P94G, H146N
Take B2: in assay [1], the PAR-2 Cell Based Assay ED50 was determined as 690 nM. In addition, the C3 destruction ED50 (mg/kg), in vivo, intravenous injection, cynomolgus monkey in assay [3] stood at 0.2 mg/kg.

B3: Q38H/I41S/D60bT/F60eS/Y60gW/D96K/F97G/ins97aV/T98P/F99L/C122S/G151H/Q175L/Q192D (enzyme)
chain: B1 chain
In turn, B3 displayed a C3 destruction ED50 (mg/kg), in vivo, intravenous injection, cynomolgus monkey in assay [3] of 0.07 mg/kg. In assay [2], the % Inhibition of CH50, human citrated plasma, 3.2 nM test article is -5%; the % Inhibition of CH50, human citrated plasma, 16 nM test article turned out to be 1%; the % Inhibition of CH50, human citrated plasma, 80 nM test article is 40%; the % Inhibition of CH50, human citrated plasma, 400 nM test article was found to be 84%. Moreover, in assay [2], the % Inhibition of CH50, human citrated plasma, 2000 nM test article stood at 92% and the EC50 (nM), cleavage of purified hC3 in vitro was 6.86 nM.

B4: Q38H/I41A/D60bV/F60eR/Y60gW/D96I/F97Y/ins97aN/T98G/F99L/C122S/G151N/Q175L/Q192D (enzyme)
chain: B1 chain with S26A, T47V, S50R, K91I, G92Y, V93N, P94G, H146N
In assay [1], B4 registered a PAR-2 Cell Based Assay ED50 of 450 nM. Also, the C3 destruction ED50 (mg/kg), in vivo, intravenous injection, cynomolgus monkey in assay [3] stood at 0.06 mg/kg.

B5: Q38H/I41S/D60bT/F60eS/Y60gW/F97D/ins97aV/T98P/F99L/C122S/G151H/Q175L/Q192E (enzyme)
chain: B1 chain with K91D, G92D, D189E
In turn, B5 returned a PAR-2 Cell Based Assay ED50 in assay [1] of 1800 nM. Besides, the C3 destruction ED50 (mg/kg), in vivo, intravenous injection, cynomolgus monkey in assay [3] came out at 0.1 mg/kg.

B6: Q38H/I41S/D60bT/F60eS/Y60gW/D96K/F97D/ins97aA/T98P/F99L/C122S/G151H/Q175L/Q192D (enzyme)
chain: B1 chain with G92D, V93A
With B6, the PAR-2 Cell Based Assay ED50 in assay [1] was 420 nM.

B7: Q38H/I41A/D60bT/F60eK/Y60gW/F97T/ins97aE/T98G/F99L/C122S/G151N/Q175L/Q192D (enzyme)
chain: B1 chain with S26A, S50K, K91D, G92T, V93E, P94G, H146N
In assay [1], B7 yielded a PAR-2 Cell Based Assay ED50 of 1900 nM. In assay [3], this molecule had a C3 destruction ED50 (mg/kg), in vivo, intravenous injection, cynomolgus monkey of 0.2 mg/kg.

B8: Modified MTSP-1 protease domain Q38H/I41A/D60bT/F60eK/Y60gW/F97T/ins97aE/T98G/F99L/C122S/G151N/Q175L/Q192D (enzyme)
chain: B1 chain with S26A, S50K, K91D, G92T, V93E, P94G, H146N
Turning to B8, the PAR-2 cell based assay ED50 and SKGR/SL kcat/Km, against wild-type MTSP-1 protease domain with C122S in assay [1] was more than 30 fold.

B9: Modified MTSP-1 protease domain Q38H/I41A/D60bV/F60eR/Y60gW/F97T/ins97aE/T98G/F99L/C122S/G151N/Q175L/Q192D (enzyme)
chain: B1 chain with S26A, T47V, S50R, K91D, G92T, V93E, P94G, H146N
Take B9: the PAR-2 cell based assay ED50 and SKGR/SL kcat/Km, against wild-type MTSP-1 protease domain with C122S in assay [1] is more than 30 fold.

B10: Q38H/I41A/D60bV/F60eR/Y60gW/D96I/F97N/T98G/F99L/C122S/G151N/Q175L/Q192D (enzyme)
chain: VVGGTDADEGEWPWQVSLHALGHGHACGASLISPNWLVSAAHCYIDVRGRRWSDPTQWTAFLGLHDQSQRSAPGVQERRLKRIISHPFFNINGLDYDIALLELEKPAEYSSMVRPISLPDASHVFPAGKAIWVTGWGHTQYGGTNALILQKGEIRVINQTTCENLLPQLITPRMMCVGFLSGGVDSCDGDSGGPLSSVEADGRIFQAGVVSWGDGCAQRNKPGVYTRLPLFRDWIKENTGV
Molecule B10 showed a PAR-2 Cell Based Assay ED50 in assay [1] of 150 nM. In assay [2], this molecule returned an EC50 (nM), cleavage of purified hC3 in vitro of 2.87 nM.
